From publication PMC9482650, “Quantitative fragmentomics allow affinity mapping of interactomes” (Nature Communications, 2022)

Legend:
Assay in all cases: holdup assay
Parameters in all cases: key: below the threshold = too weak to quantify, mostly under pKd 3.1 to 4
GIPC2, Q8TF65 = molecular target: GIPC2, Q8TF65
SYNJ2BP, P57105 = molecular target: T1, SYNJ2BP, P57105
T1 sequence (P57105 8-110, limits assumed, looked up): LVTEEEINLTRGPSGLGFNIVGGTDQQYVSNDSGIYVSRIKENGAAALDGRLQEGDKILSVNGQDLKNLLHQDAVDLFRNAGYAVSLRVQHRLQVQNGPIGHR

Inadl_10, Q8NI35 = molecular target: Inadl_10, Q8NI35
Inadl_10, Q8NI35, sequence (Q8NI35 1673-1763): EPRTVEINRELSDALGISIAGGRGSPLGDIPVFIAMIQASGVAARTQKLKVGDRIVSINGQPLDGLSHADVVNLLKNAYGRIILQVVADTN

DLG4_3, P78352 = molecular target: DLG4_3, P78352
DLG4_3, P78352, sequence (P78352 306-403): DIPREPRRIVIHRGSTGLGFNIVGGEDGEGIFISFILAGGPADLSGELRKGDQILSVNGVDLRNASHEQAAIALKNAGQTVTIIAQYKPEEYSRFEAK

PCLO, Q9Y6V0 = molecular target: T2, PCLO, Q9Y6V0
T2 sequence (Q9Y6V0 4491-4600, limits assumed, looked up): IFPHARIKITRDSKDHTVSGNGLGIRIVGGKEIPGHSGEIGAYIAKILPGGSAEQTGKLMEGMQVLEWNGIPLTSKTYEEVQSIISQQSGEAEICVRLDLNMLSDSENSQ

DLG1_3, Q12959 = molecular target: DLG1_3, Q12959
DLG1_3, Q12959, sequence (Q12959 457-571): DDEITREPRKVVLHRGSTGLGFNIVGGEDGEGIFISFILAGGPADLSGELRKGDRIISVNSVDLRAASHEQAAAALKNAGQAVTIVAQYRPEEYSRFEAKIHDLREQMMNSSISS

PARD3B_1, Q8TEW8 = molecular target: T3, PARD3B_1, Q8TEW8
T3 sequence (Q8TEW8 196-299, limits assumed, looked up): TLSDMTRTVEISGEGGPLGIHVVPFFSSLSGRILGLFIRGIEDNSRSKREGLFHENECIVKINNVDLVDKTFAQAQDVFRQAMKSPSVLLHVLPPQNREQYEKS

GRIP2_7, Q9C0E4 = molecular target: GRIP2_7, Q9C0E4
GRIP2_7, Q9C0E4, sequence (Q9C0E4 934-1023): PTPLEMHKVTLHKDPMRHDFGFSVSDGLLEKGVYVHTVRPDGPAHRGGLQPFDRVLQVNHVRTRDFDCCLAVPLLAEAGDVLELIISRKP

GRID2IP_1, A4D2P6 = molecular target: GRID2IP_1, A4D2P6
GRID2IP_1, A4D2P6, sequence (A4D2P6 1-87): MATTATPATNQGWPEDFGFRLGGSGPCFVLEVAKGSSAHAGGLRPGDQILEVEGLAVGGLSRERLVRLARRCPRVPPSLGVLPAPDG

HTRA1, Q92743 = molecular target: HTRA1, Q92743
HTRA1, Q92743, sequence (Q92743 360-477): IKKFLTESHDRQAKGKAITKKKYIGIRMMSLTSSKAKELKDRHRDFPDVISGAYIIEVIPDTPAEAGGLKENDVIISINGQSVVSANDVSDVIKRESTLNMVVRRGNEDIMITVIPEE

DLG2_3, Q15700 = molecular target: DLG2_3, Q15700
SIPA1L2, Q9P2F8 = molecular target: T4, SIPA1L2, Q9P2F8
T4 sequence (Q9P2F8 945-1036, limits assumed, looked up): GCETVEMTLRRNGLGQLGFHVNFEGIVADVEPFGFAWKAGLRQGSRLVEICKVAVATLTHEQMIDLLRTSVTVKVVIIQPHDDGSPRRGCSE

ARHGAP21, Q5T5U3 = molecular target: T5, ARHGAP21, Q5T5U3
T5 sequence (Q5T5U3 45-169, limits assumed, looked up): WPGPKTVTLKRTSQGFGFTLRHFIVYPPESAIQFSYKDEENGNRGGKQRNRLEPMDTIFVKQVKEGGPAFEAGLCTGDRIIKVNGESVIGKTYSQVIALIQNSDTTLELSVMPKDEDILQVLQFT

RAPGEF6, Q8TEU7 = molecular target: T6, RAPGEF6, Q8TEU7
T6 sequence (Q8TEU7 525-625, limits assumed, looked up): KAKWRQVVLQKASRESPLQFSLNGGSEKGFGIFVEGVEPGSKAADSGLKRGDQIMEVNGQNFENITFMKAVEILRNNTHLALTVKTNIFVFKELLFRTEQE

GOPC, Q9HD26 = molecular target: GOPC, Q9HD26
DLG1_2, Q12959 = molecular target: DLG1_2, Q12959
DLG1_2, Q12959, sequence (Q12959 314-412): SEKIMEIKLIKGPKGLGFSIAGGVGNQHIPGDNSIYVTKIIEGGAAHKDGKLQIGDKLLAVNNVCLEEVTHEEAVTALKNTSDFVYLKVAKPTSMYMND

FRMPD2_2, Q68DX3 = molecular target: FRMPD2_2, Q68DX3
FRMPD2_2, Q68DX3, sequence (Q68DX3 944-1038): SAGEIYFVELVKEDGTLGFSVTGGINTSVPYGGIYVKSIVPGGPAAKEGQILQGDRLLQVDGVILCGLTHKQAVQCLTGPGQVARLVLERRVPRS

PTPN13_1, Q12923 = molecular target: T7, PTPN13_1, Q12923
T7 sequence (Q12923 1088-1188, limits assumed, looked up): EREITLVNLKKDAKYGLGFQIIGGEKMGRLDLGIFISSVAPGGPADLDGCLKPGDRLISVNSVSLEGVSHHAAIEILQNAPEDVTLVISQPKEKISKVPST

LRRC7, Q96NW7 = molecular target: T8, LRRC7, Q96NW7
T8 sequence (Q96NW7 1440-1537, limits assumed, looked up): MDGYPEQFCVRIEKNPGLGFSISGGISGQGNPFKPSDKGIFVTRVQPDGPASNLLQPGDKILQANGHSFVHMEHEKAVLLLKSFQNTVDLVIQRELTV

SNTB1, Q13884 = molecular target: T9, SNTB1, Q13884
T9 sequence (Q13884 107-205, limits assumed, looked up): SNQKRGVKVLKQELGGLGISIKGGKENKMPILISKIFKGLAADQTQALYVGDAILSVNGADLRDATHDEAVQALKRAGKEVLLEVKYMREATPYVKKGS

PDZD7_3, Q9H5P4 = molecular target: T10, PDZD7_3, Q9H5P4
T10 sequence (Q9H5P4 857-944, limits assumed, looked up): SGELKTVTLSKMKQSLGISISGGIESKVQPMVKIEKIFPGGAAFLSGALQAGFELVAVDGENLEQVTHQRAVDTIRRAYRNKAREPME

LIN7A, O14910 = molecular target: T11, LIN7A, O14910
T11 sequence (O14910 103-200, limits assumed, looked up): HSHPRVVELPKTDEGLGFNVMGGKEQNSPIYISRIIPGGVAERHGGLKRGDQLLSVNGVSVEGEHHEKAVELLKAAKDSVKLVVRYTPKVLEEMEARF

GRIP2_3, Q9C0E4 = molecular target: GRIP2_3, Q9C0E4
GRIP2_3, Q9C0E4, sequence (Q9C0E4 238-339): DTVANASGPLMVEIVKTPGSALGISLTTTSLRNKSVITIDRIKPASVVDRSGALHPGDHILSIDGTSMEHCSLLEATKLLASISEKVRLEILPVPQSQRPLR

DLG2_2, Q15700 = molecular target: DLG2_2, Q15700
MPDZ_5, O75970 = molecular target: T12, MPDZ_5, O75970
T12 sequence (O75970 695-796, limits assumed, looked up): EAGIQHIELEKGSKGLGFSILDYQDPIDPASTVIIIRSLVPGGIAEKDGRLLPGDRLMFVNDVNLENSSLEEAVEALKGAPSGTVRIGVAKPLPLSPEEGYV

[1] = plain residues with an end cap or a label only (N-terminal biotin on a linker: ahx)
[2] = plain residues with an end cap or a label only (N-terminal biotin on a linker: ttds)

GIPC2, Q8TF65, sequence (Q8TF65 112-203): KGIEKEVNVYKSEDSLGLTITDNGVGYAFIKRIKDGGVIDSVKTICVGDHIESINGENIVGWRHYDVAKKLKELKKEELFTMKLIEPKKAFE

B1: NHERF3, Q5T2W1 (peptide)
chain: SSSNSEDTEM
- pKd (GIPC2, Q8TF65; [1]): below the threshold
- pKd (SYNJ2BP, P57105; [1]): below the threshold
- pKd (Inadl_10, Q8NI35; [1]): below the threshold
- pKd (DLG4_3, P78352; [1]): below the threshold
- pKd (PCLO, Q9Y6V0; [1]): below the threshold
- pKd (DLG1_3, Q12959; [1]): below the threshold
- pKd (PARD3B_1, Q8TEW8; [1]): below the threshold
- pKd (GRIP2_7, Q9C0E4; [1]): below the threshold
- pKd (GRID2IP_1, A4D2P6; [1]): below the threshold
- pKd (HTRA1, Q92743; [1]): below the threshold
- pKd (DLG2_3, Q15700; [1]): below the threshold
- pKd (SIPA1L2, Q9P2F8; [1]): below the threshold
- pKd (ARHGAP21, Q5T5U3; [1]): below the threshold
- pKd (RAPGEF6, Q8TEU7; [1]): below the threshold
- pKd (GOPC, Q9HD26; [1]): below the threshold
- pKd (DLG1_2, Q12959; [1]): below the threshold
- pKd (FRMPD2_2, Q68DX3; [1]): below the threshold
- pKd (PTPN13_1, Q12923; [1]): below the threshold
- pKd (LRRC7, Q96NW7; [1]): below the threshold
- pKd (SNTB1, Q13884; [1]): below the threshold
- pKd (PDZD7_3, Q9H5P4; [1]): below the threshold
- pKd (LIN7A, O14910; [1]): below the threshold
- pKd (GRIP2_3, Q9C0E4; [1]): below the threshold
- pKd (DLG2_2, Q15700; [1]): below the threshold
- pKd (MPDZ_5, O75970; [1]): below the threshold

B2: ATP2B1, P20020 (peptide)
chain: SPLHSLETSL
- pKd (GIPC2, Q8TF65; [2]): 3.88
- pKd (SYNJ2BP, P57105; [2]): 4.91
- pKd (Inadl_10, Q8NI35; [2]): below the threshold
- pKd (DLG4_3, P78352; [2]): 4.01
- pKd (PCLO, Q9Y6V0; [2]): below the threshold
- pKd (DLG1_3, Q12959; [2]): 4.08
- pKd (PARD3B_1, Q8TEW8; [2]): 4.02
- pKd (GRIP2_7, Q9C0E4; [2]): below the threshold
- pKd (GRID2IP_1, A4D2P6; [2]): below the threshold
- pKd (HTRA1, Q92743; [2]): 3.75
- pKd (DLG2_3, Q15700; [2]): 4.07
- pKd (SIPA1L2, Q9P2F8; [2]): below the threshold
- pKd (ARHGAP21, Q5T5U3; [2]): 3.58
- pKd (RAPGEF6, Q8TEU7; [2]): below the threshold
- pKd (GOPC, Q9HD26; [2]): 4.13
- pKd (DLG1_2, Q12959; [2]): 4.67
- pKd (FRMPD2_2, Q68DX3; [2]): 3.48
- pKd (PTPN13_1, Q12923; [2]): below the threshold
- pKd (LRRC7, Q96NW7; [2]): 3.58
- pKd (SNTB1, Q13884; [2]): 4.69
- pKd (PDZD7_3, Q9H5P4; [2]): 4.63
- pKd (LIN7A, O14910; [2]): below the threshold
- pKd (GRIP2_3, Q9C0E4; [2]): below the threshold
- pKd (DLG2_2, Q15700; [2]): 4.18
- pKd (MPDZ_5, O75970; [2]): below the threshold

B3: DGKZ, Q13574 (peptide)
chain: IQREDQETAV
- pKd (GIPC2, Q8TF65; [2]): 3.67
- pKd (SYNJ2BP, P57105; [2]): 5.31
- pKd (Inadl_10, Q8NI35; [2]): below the threshold
- pKd (DLG4_3, P78352; [2]): 3.84
- pKd (PCLO, Q9Y6V0; [2]): below the threshold
- pKd (DLG1_3, Q12959; [2]): 4.12
- pKd (PARD3B_1, Q8TEW8; [2]): below the threshold
- pKd (GRIP2_7, Q9C0E4; [2]): below the threshold
- pKd (GRID2IP_1, A4D2P6; [2]): below the threshold
- pKd (HTRA1, Q92743; [2]): 3.96
- pKd (DLG2_3, Q15700; [2]): 4.38
- pKd (SIPA1L2, Q9P2F8; [2]): below the threshold
- pKd (ARHGAP21, Q5T5U3; [2]): below the threshold
- pKd (RAPGEF6, Q8TEU7; [2]): below the threshold
- pKd (GOPC, Q9HD26; [2]): 3.86
- pKd (DLG1_2, Q12959; [2]): 5.16
- pKd (FRMPD2_2, Q68DX3; [2]): 4.93
- pKd (PTPN13_1, Q12923; [2]): below the threshold
- pKd (LRRC7, Q96NW7; [2]): below the threshold
- pKd (SNTB1, Q13884; [2]): 5.29
- pKd (PDZD7_3, Q9H5P4; [2]): 4.32
- pKd (LIN7A, O14910; [2]): below the threshold
- pKd (GRIP2_3, Q9C0E4; [2]): below the threshold
- pKd (DLG2_2, Q15700; [2]): 4.69
- pKd (MPDZ_5, O75970; [2]): below the threshold

B4: RGS12, O14924 (peptide)
chain: KTSAHHATFV
- pKd (GIPC2, Q8TF65; [1]): below the threshold
- pKd (SYNJ2BP, P57105; [1]): 4.26
- pKd (Inadl_10, Q8NI35; [1]): 3.91
- pKd (DLG4_3, P78352; [1]): below the threshold
- pKd (PCLO, Q9Y6V0; [1]): below the threshold
- pKd (DLG1_3, Q12959; [1]): below the threshold
- pKd (PARD3B_1, Q8TEW8; [1]): below the threshold
- pKd (GRIP2_7, Q9C0E4; [1]): 3.72
- pKd (GRID2IP_1, A4D2P6; [1]): below the threshold
- pKd (HTRA1, Q92743; [1]): 4.43
- pKd (DLG2_3, Q15700; [1]): 3.47
- pKd (SIPA1L2, Q9P2F8; [1]): below the threshold
- pKd (ARHGAP21, Q5T5U3; [1]): below the threshold
- pKd (RAPGEF6, Q8TEU7; [1]): below the threshold
- pKd (GOPC, Q9HD26; [1]): 3.53
- pKd (DLG1_2, Q12959; [1]): 4.15
- pKd (FRMPD2_2, Q68DX3; [1]): 4.72
- pKd (PTPN13_1, Q12923; [1]): below the threshold
- pKd (LRRC7, Q96NW7; [1]): 3.59
- pKd (SNTB1, Q13884; [1]): 3.47
- pKd (PDZD7_3, Q9H5P4; [1]): 4.31
- pKd (LIN7A, O14910; [1]): below the threshold
- pKd (GRIP2_3, Q9C0E4; [1]): below the threshold
- pKd (DLG2_2, Q15700; [1]): 4.01
- pKd (MPDZ_5, O75970; [1]): 3.58
